# Results published in patent US20210301020A1 (Amgen, published 2021).
# Numbering of substitutions follows the chain as printed.
# B1: anti-LILRB1 antibody 30A10 (antibody, V domains shown)
# VH: QVQLVESGGGVVQPGRSLRLSCAASGFTFSSYAMHWVRQAPGKGLEWVAIIWFDGSQRYYADSVKGRFTISRDNSRDTLYLQMNSLRAEDTAVYYCARDELTGFDYWGQGTLVTVSS
# VL: DIQMTQSPSSLSASVGDRVTISCRASQNIINFLNWYQQKPGKAPKVLIDAASSLRSGVPSRFSGSGSETDFSLTISSLQPEDFATYYCQQSFSTPLTFGGGTKVEIRR
# notes: Fully human antibody from XENOMOUSE mice, tested as hybridoma supernatant
# B2: anti-LILRB1 antibody 3C1 (antibody, human IgG4, lambda, V domains shown)
# VH: EVQLVESGGGLVQPGGSLRLSCAASGFTFSDYDMHWVRQATGKGLEWVATIDTAGDTYYPDSVRGRFTISRENAKNSLSLQMNSLRAGDTAVYFCARDVPGTGFDHWGQGTLVTVSS
# VL: SSELTQDPAVSVALGQTVRITCQGDSLRSYYESWYQQKPGQAPVLVIYGKNNRPSGIPDRFSGSISGNTASLTITGTQAEDEADYYCNSRDNSGDHWVFGGGTRLTVLG
# notes: Fully human antibody from XENOMOUSE XMG4-K/XMG4-KL mice, tested as hybridoma supernatant
# B3: anti-LILRB1 antibody 19D6 (antibody, V domains shown)
# VH: EVQLVESGGGLVQPGESLRLSCAASGFTFSDYDMHWVRQATGKGLEWVSAIDTAGDTYYLGPVKGRFTISRENAKNSLFLHMNSLRVGDTAVYYCIRDSGSSFDYWGQGTLVTVSS
# VL: B2 VL with S1T, S29N, I65S, T73I, N88M, N92S, D95N, R104K, L105V
# notes: as for B1
# Legend:
# [1] = molecular target: human LILRB1 expressed on cells (Jurkat reporter cells; primary human cells; human CD8+ T cells) (human) (UniProt Q8NHL6); assay: flow cytometry, control on LILRB1 expressed by primary human cells
# [2] = molecular target: human LILRB1 expressed on cells (Jurkat reporter cells; primary human cells; human CD8+ T cells) (human) (UniProt Q8NHL6); assay: cell-based or functional assay
# [3] = molecular target: human LILRB1 expressed on cells (Jurkat reporter cells; primary human cells; human CD8+ T cells) (human) (UniProt Q8NHL6); assay: flow cytometry, hybridoma supernatant on LILRB1 expressed by primary human cells
# [4] = molecular target: T1, Recombinant human LILRB1 (R&D Systems) (human, UniProt Q8NHL6 24-458, limits assumed); assay: BLI, ForteBio Octet HTX, antibody captured by anti-human Fc on SA sensors, soluble LILRB1 as analyte, 25 C, 1:1 model
# T1 construct: Soluble analyte in the Octet assay
# Method: Affinity was measured on ForteBio Octet HTX (Molecular Devices) using SA biosensors (cat 18-5010) using assay buffer comprised of 10 mM Tris, 0.1% TritonX, 150 mM NaCl, 1 mM CaCl₂), 1 mg/mL BSA, pH 7.4. Assay was conducted at 25° C. and 1:1 model was used to fit the curves. Biotinylated goat anti-human Fc at 0.75 ug/mL was captured on SA sensors and antibodies as unpurified but quantified hybridoma supernatant were loaded on the sensor at 2 ug/mL for 600 seconds. Recombinant human LILRB1 (R&D Systems) titrated 1:2 from 25 nM was allowed to bind for 5 minutes, then dissociation was measured for 20 minutes.
# T1 sequence (Q8NHL6 24-458 limits assumed): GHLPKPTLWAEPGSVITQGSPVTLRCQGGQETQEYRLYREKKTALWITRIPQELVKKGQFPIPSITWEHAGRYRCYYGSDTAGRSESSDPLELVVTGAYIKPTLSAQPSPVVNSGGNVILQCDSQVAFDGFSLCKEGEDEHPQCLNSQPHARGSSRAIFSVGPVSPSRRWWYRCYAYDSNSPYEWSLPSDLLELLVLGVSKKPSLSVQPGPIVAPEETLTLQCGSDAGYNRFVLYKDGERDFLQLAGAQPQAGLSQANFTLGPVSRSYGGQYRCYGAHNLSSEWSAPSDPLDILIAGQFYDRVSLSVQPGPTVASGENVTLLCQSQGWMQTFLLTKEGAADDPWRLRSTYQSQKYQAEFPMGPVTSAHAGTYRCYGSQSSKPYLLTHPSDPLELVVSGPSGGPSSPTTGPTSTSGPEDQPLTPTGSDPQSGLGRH
Molecule,FACS GeoMean test 2 [1],"FACS GeoMean, test 1 [1]","Potency (nM), n = 1 [2] [nM]","Potency (nM), n = 2 [2] [nM]",FACS GeoMean test 2 [3],Kd [4] [pM],koff [4] [s⁻¹],kon [4] [M⁻¹ s⁻¹],"FACS GeoMean, test 1 [3]"
Isotype control (Table 2) (antibody),359,73,–,–,–,–,–,–,–
B1,–,–,0.062,0.042,2540,103,0.00012,1.17e+06,–
B2,–,–,0.04,0.024,–,168,0.000247,1.47e+06,1750
B3,–,–,0.084,0.095,2540,176,0.000206,1.17e+06,–
